The chains are these.
B1: KRT15 (parent)
chain: SNFHINVEESVDGQVVSSHKREI
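Also: lentivirally expressed fusions sorted by FACS into six bins by GFP to DsRed ratio, PSI derived from sequencing read proportions per bin multiplied by bin number.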

In this data set the parent is B1. Nature of the data set: protein stability index of a GFP-peptide fusion (GPS, HEK-293T) (PSI 1-6); higher = more stable. Conditions: c terminus: native.
Consider SNFHINVEESVDGQVHSSHKREI [V16H], for which the protein stability index worked out at 1.2.

For SNFHINVEESVDGQVTSSHKREI [V16T], the protein stability index is 2.99. The same measure for SNFHINVEESVDGQVPSSHKREI [V16P]: 2.18; for SNFHINVEESVDGQVCSSHKREI [V16C]: 2.25. Regarding SNFHINVEESVDGQVKSSHKREI [V16K], the protein stability index amounted to 2.2. For SNFHINVEESVDGQVESSHKREI [V16E], the protein stability index stood at 2.85.

Turning to SNFHINVEESVDGQVASSHKREI [V16A], the protein stability index is 2.19. The same measure for SNFHINVEESVDGQVNSSHKREI [V16N]: 2.46; for SNFHINVEESVDGQVMSSHKREI [V16M]: 2.23. On to SNFHINVEESVDGQVDSSHKREI [V16D], for which the protein stability index was found to be 2.86. As to SNFHINVEESVDGQVQSSHKREI [V16Q], the protein stability index amounted to 2.62. The same measure for SNFHINVEESVDGQVYSSHKREI [V16Y]: 2; for SNFHINVEESVDGQVSSSHKREI [V16S]: 2.18; for SNFHINVEESVDGQVGSSHKREI [V16G]: 2.82. For SNFHINVEESVDGQVLSSHKREI [V16L], the protein stability index was found to be 2.37. With SNFHINVEESVDGQVVSSFKREI [H19F], the protein stability index was found to be 1.33. On to SNFHINVEESVDGQVVSSEKREI [H19E], for which the protein stability index turned out to be 4.9. The same measure for SNFHINVEESVDGQVVSSDKREI [H19D]: 5; for SNFHINVEESVDGQVVSSIKREI [H19I]: 2.03; for SNFHINVEESVDGQVVSSKKREI [H19K]: 2.95. With SNFHINVEESVDGQVVSSYKREI [H19Y], the protein stability index worked out at 3.48. The same measure for SNFHINVEESVDGQVVSSQKREI [H19Q]: 2.88; for SNFHINVEESVDGQVVSSNKREI [H19N]: 4.44. Turning to SNFHINVEESVDGQVVSSPKREI [H19P], the protein stability index was 4.66. The same measure for SNFHINVEESVDGQVVSSSKREI [H19S]: 4.55; for SNFHINVEESVDGQVVSSAKREI [H19A]: 2.75; for SNFHINVEESVDGQVVSSCKREI [H19C]: 2.22. SNFHINVEESVDGQVVSSMKREI [H19M]: the protein stability index was 2.39. Consider SNFHINVEESVDGQVVSSLKREI [H19L], for which the protein stability index was 2.08. As for SNFHINVEESVDGQVVSSVKREI [H19V], the protein stability index was 3.51.

Turning to SNFHINVEESVEGQVVSSHKREI [D12E], the protein stability index was found to be 2.21. In the case of SNFHINVEESVQGQVVSSHKREI [D12Q], the protein stability index was found to be 2.07. In the case of SNFHINVEESVHGQVVSSHKREI [D12H], the protein stability index stood at 2.38. Next, SNFHINVEESVRGQVVSSHKREI [D12R]: 3.65; SNFHINVEESVIGQVVSSHKREI [D12I]: 1.34.

Consider SNFHINVEESVPGQVVSSHKREI [D12P], for which the protein stability index is 1.95. Turning to SNFHINVEESVGGQVVSSHKREI [D12G], the protein stability index came to 1.45.

Consider SNFHINVEESVWGQVVSSHKREI [D12W], for which the protein stability index was determined as 3.13. Next, SNFHINVEESVKGQVVSSHKREI [D12K]: 1.31; SNFHINVEESVVGQVVSSHKREI [D12V]: 2.65; SNFHINVEESVSGQVVSSHKREI [D12S]: 2.07. The same measure for SNFHINVEESVCGQVVSSHKREI [D12C]: 3.28; for SNFHINVEESVNGQVVSSHKREI [D12N]: 1.82.

For the variant SNFHINVEESVTGQVVSSHKREI [D12T], the protein stability index came to 2.21. Turning to SNFHINVEESVYGQVVSSHKREI [D12Y], the protein stability index stood at 1.

Turning to SNFHINVEESVMGQVVSSHKREI [D12M], the protein stability index turned out to be 2.69.

Regarding SNFHINVEESVDGQVVSSHKPEI [R21P], the protein stability index was 3.5. Next, SNFHINVEESVDGQVVSSHKHEI [R21H]: 3.9; SNFHINVEESVDGQVVSSHKKEI [R21K]: 4.88; SNFHINVEESVDGQVVSSHKAEI [R21A]: 4.45.

Turning to SNFHINVEESVDGQVVSSHKMEI [R21M], the protein stability index was found to be 4.91.

On to SNFHINVEESVDGQVVSSHKIEI [R21I], for which the protein stability index is 3.16. The same measure for SNFHINVEESVDGQVVSSHKLEI [R21L]: 4.52; for SNFHINVEESVDGQVVSSHKQEI [R21Q]: 4.48; for SNFHINVEESVDGQVVSSHKTEI [R21T]: 4.4. Turning to SNFHINVEESVDGQVVSSHKYEI [R21Y], the protein stability index is 4.83. Turning to SNFHINVEESVDGQVVSSHKFEI [R21F], the protein stability index is 4.32. Turning to SNFHINVEESVDGQVVSSHKDEI [R21D], the protein stability index was 4.89.

For the variant SNFHINVEESVDGQVVSSHKNEI [R21N], the protein stability index came out at 3.89.

With SNFHINVEESVDGQVVSSHKWEI [R21W], the protein stability index is 3.38.

As to SNFHINVEESVDGQVVSSHKSEI [R21S], the protein stability index was determined as 5.13. Consider SNFHINVEESVDGQVVSSHKGEI [R21G], for which the protein stability index is 4.9. Consider SNFHINVEESVDGQVVSSHKVEI [R21V], for which the protein stability index worked out at 3.79. SNFHINVEESVDGQVVSSHKCEI [R21C]: the protein stability index came out at 4.43. On to SNFHINVEESVDGQVVSSHKEEI [R21E], for which the protein stability index was 5.02. On to SNFHINVEESVDGQVVRSHKREI [S17R], for which the protein stability index was found to be 1.7. Regarding SNFHINVEESVDGQVVWSHKREI [S17W], the protein stability index came out at 4.29.

Turning to SNFHINVEESVDGQVVFSHKREI [S17F], the protein stability index was 2.65.

For SNFHINVEESVDGQVVDSHKREI [S17D], the protein stability index is 1.8. For the variant SNFHINVEESVDGQVVQSHKREI [S17Q], the protein stability index is 1.68.

For SNFHINVEESVDGQVVMSHKREI [S17M], the protein stability index was 1.29.

Regarding SNFHINVEESVDGQVVISHKREI [S17I], the protein stability index was determined as 1.12.

Consider SNFHINVEESVDGQVVLSHKREI [S17L], for which the protein stability index came out at 2.06. For SNFHINVEESVDGQVVESHKREI [S17E], the protein stability index is 2.91. For the variant SNFHINVEESVDGQVVASHKREI [S17A], the protein stability index was 2.37. On to SNFHINVEESVDGQVVPSHKREI [S17P], for which the protein stability index stood at 1.43. For the variant SNFHINVEESVDGQVVHSHKREI [S17H], the protein stability index was found to be 2.17. SNFHINVEESVDGQVVYSHKREI [S17Y]: the protein stability index stood at 2.27. For the variant SNFHINVEESVDGQVVVSHKREI [S17V], the protein stability index is 2.42. Take SNFHINVEESVDGQVVGSHKREI [S17G]: the protein stability index came out at 2.73. The same measure for SNFHINVEESVDGQVVTSHKREI [S17T]: 2.5; for SNFHINVEESVDGQVVKSHKREI [S17K]: 1.82; for SNFHINVEESVDGQVVNSHKREI [S17N]: 1.91.

Take SNFHINVEESVDGQVVSKHKREI [S18K]: the protein stability index came out at 2.06.

As for SNFHINVEESVDGQVVSRHKREI [S18R], the protein stability index was determined as 3.29. In the case of SNFHINVEESVDGQVVSCHKREI [S18C], the protein stability index amounted to 2.21. Regarding SNFHINVEESVDGQVVSQHKREI [S18Q], the protein stability index amounted to 1.27. For the variant SNFHINVEESVDGQVVSMHKREI [S18M], the protein stability index came to 1. The same measure for SNFHINVEESVDGQVVSNHKREI [S18N]: 2.72; for SNFHINVEESVDGQVVSGHKREI [S18G]: 1.54. For SNFHINVEESVDGQVVSYHKREI [S18Y], the protein stability index came to 3.37.

In the case of SNFHINVEESVDGQVVSAHKREI [S18A], the protein stability index amounted to 1.37. The same measure for SNFHINVEESVDGQVVSIHKREI [S18I]: 2.44; for SNFHINVEESVDGQVVSDHKREI [S18D]: 3.92. In the case of SNFHINVEESVDGQVVSPHKREI [S18P], the protein stability index was determined as 3.1. With SNFHINVEESVDGQVVSEHKREI [S18E], the protein stability index stood at 3.06. In the case of SNFHINVEESVDGQVVSTHKREI [S18T], the protein stability index was determined as 1.63.

The values above are taken from the supplement of paper PMC10567573.
